Test results as given in patent US9814672B2, “Echogenic vehicle for clinical delivery of plasminogen activator and other fibrin-binding therapeutics to thrombi” (priority 2007, dated 2017).

Experiments:
fibrin = biological target: T1, fibrin (Homo sapiens, UniProt P02671+P02675+P02679); assay: Two-stage fibrin pad ELISA, Scatchard and van't Hoff analysis; conditions: undiluted fresh-frozen rabbit serum, 37° C.; read-out: binding affinity (KD) in serum
T1 construct: were incubated on replicate fibrin pads, prepared in microplate wells; purchased Calbiochem (EMD Biosciences, Inc., La Jolla, Calif.)
T1 sequence (P02671 36-629 limits assumed): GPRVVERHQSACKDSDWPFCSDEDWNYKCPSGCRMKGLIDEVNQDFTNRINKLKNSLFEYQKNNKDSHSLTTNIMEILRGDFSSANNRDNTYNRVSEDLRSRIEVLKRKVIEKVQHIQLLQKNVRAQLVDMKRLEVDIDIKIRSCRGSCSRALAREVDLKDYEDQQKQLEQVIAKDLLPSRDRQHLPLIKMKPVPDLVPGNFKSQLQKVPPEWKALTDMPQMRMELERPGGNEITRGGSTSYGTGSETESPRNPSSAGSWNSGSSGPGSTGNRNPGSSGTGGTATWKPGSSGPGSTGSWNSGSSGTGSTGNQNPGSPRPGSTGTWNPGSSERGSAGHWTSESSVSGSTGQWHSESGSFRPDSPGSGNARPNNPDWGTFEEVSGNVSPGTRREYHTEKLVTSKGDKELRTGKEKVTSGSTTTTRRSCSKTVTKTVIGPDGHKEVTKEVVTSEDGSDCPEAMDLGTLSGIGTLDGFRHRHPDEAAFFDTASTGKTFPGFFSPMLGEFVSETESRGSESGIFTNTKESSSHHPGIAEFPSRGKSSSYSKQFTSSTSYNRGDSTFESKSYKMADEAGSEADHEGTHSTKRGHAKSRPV
T1 sequence (P02675 45-491 limits assumed): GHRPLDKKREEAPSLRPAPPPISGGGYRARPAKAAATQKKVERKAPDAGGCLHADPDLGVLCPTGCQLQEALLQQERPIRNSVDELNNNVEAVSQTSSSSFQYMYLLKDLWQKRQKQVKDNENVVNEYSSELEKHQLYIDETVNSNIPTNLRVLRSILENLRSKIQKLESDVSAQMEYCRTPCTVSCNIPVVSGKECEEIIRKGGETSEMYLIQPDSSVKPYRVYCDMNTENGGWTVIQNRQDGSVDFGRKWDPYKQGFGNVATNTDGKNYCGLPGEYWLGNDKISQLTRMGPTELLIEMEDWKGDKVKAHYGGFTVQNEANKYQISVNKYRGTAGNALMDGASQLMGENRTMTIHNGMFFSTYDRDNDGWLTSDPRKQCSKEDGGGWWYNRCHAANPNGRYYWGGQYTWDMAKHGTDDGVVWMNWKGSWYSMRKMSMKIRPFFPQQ
T1 sequence (P02679 27-437 isoform P02679-2 limits assumed): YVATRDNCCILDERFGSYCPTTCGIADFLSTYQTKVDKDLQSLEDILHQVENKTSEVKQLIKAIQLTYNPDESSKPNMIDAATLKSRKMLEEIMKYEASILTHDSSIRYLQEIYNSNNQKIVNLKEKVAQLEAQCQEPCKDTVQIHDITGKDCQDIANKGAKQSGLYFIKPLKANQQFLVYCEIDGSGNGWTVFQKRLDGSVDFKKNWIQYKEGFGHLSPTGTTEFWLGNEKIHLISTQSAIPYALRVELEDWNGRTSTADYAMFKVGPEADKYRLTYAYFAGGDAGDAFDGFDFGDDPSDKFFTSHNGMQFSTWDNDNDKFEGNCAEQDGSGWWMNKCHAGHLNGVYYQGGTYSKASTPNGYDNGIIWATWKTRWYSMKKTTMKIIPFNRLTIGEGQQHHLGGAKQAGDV

[1] = system: whole porcine blood clots; assay: In vitro thrombolysis, percent clot mass loss; conditions: 1 MHz CW, 2 W/cm^2, 2 min vs. no ultrasound
Experimental: Whole porcine blood clots were used to evaluate thrombolysis. Blood was obtained from non-heparinized Yucatan miniswine. The miniswine were 6-8 weeks old and weighed 28.5±6.5 lb. Baseline blood analysis data, including complete blood count, prothrombin time, activated partial thromboplastin time, D-dimer, and fibrinogen were obtained to ensure normal clotting parameters. Whole blood clots were made by aliquoting 1.5 ml fresh porcine blood into 1.3-cm inner diameter vacutainer tubes; the tubes were incubated in a 37° C. water bath for 3 h. The clots were then stored at 4° C. until use, which ensured complete clot maturation and retraction. This type of clot is fairly similar to physiologic venous clots. Most miniswine used in this study were slightly anemic (hematocrit of 27.8±3.0%). Only donors with values of <250 ng/ml for the D-dimer test, <15 s for prothrombin time, <18 s for activated partial thromboplastin time, and <300 mg/dl fibrinogen concentration were considered acceptable. The resulting clots were dark red, cylindrical, and weighed 0.47±0.11 g. All unused clots were discarded after 2 weeks.
Whole porcine blood clots were blotted gently and weighed using an analytical balance. […]
Porcine clots were treated with 1 MHz continuous wave (CW) ultrasound with an intensity of 2 W/cm^2, for 2 min (Sonitron 1000; Rich-Mar). The calculated peak negative acoustic pressure output was 0.12 MPa. […]

Substance	Kd (fibrin)	effect of ultrasound exposure on thrombolysis [1]
tPA(P): Human recombinant tPA (Activase®) irreversibly inhibited with D-phe-L-pro-L-arg-chloromethyl ketone (PPACK)	9.52 nM	–
tPA: Recombinant tissue-plasminogen activator (Activase®, Genentech Inc.), used as the thrombolytic agent [reference compound]	–	no significant augmentation of thrombolysis
